{"source": "patent US20240343800A1", "about": "(Merck KGaA, published 2024)", "key": {"human ROR1 (on cells) [1]": {"molecular_target": "T1, human ROR1 (on cells) (human, UniProt Q01973 30-937)", "assay": "cell-based or functional assay"}, "[2]": {"molecular_target": "T2, mouse ROR1 (on 4T1 cells engineered to overexpress it) (mouse, UniProt Q9Z139 30-937)", "T2 construct": "whole, on cells; also called muROR1; mROR1", "assay": "flow cytometry, 4T1 cells overexpressing mouse ROR1", "protocol": "(§1) After 15-minutes of incubation at room temperature, the cells were washed twice with 200 μL of PBS by centrifugation at 500×g for 5 minutes at room temperature and resuspended in […] of 10% goat serum in BD staining buffer (BD Biosciences, Cat No: 554657). […] The plates were then covered with foil to avoid direct light and incubated for 60 minutes at 4° C. […] After incubating for 30 minutes at 4° C., the cells were washed twice with 200 μL of PBS by centrifugation at 500×g for 5 minutes at room temperature and resuspended into 100 μL of fixation buffer (BioLegend, Cat No: 420801). The samples were then analyzed on a flow cytometer for binding signal using FlowJo software. ROR and CD3 binding EC₅₀s (concentration vs mean fluorescence intensity (MFI)) for reference molecules and test bispecific TCEs were obtained using 4-parameter non-linear regression curve fitting in GraphPad Prism."}, "[3]": {"molecular_target": "T2, mouse ROR1 (on 4T1 cells engineered to …)", "assay": "flow cytometry; reference: human ROR1 on MDA-MB-231 cells"}, "human ROR1 (on cells) [4]": {"molecular_target": "T1, human ROR1 (on cells)", "assay": "cell-based or functional assay", "remark": "listed apart in the source"}, "[5]": {"molecular_target": "T3, human CD3 (on Jurkat T cells or human CD8+ T cells) (human, UniProt P07766 23-207; P09693 23-182; P04234 22-171; P20963 22-164)", "T3 construct": "Entries are printed with signal peptides; also called huCD3; CD3ε", "T3 sequence (P07766 23-207 limits assumed, chain 1 of 4)": "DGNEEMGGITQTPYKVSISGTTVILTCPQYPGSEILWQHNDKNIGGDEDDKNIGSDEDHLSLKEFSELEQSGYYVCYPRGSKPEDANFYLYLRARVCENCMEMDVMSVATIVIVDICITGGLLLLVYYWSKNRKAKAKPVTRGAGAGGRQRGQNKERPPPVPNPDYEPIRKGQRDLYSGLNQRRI", "T3 sequence (P09693 23-182 limits assumed, chain 2 of 4)": "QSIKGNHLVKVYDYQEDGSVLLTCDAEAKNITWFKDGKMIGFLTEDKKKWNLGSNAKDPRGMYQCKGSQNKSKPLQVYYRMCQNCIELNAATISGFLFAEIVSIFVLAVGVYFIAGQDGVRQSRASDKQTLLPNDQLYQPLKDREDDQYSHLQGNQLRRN", "T3 sequence (P04234 22-171 limits assumed, chain 3 of 4)": "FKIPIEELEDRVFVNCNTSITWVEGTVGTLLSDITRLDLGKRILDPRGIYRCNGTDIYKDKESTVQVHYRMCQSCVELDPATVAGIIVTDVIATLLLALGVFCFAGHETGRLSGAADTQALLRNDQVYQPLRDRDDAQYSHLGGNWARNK", "T3 sequence (P20963 22-164 limits assumed, chain 4 of 4)": "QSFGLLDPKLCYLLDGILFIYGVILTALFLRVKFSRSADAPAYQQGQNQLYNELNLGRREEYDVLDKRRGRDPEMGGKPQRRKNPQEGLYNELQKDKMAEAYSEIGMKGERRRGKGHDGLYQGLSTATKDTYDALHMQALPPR", "assay": "flow cytometry, human CD8+ T cells", "protocol": "as §1"}, "[6]": {"molecular_target": "T4, cynomolgus CD3 (on cynomolgus pan-T cells) (cynomolgus, UniProt Q95LI5 22-198)", "T4 construct": "whole, on cells", "T4 sequence (Q95LI5 22-198)": "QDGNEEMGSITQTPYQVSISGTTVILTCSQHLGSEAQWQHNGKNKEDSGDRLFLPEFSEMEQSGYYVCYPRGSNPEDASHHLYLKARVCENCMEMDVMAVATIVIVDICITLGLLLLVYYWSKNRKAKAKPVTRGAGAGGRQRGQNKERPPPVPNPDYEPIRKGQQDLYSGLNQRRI", "assay": "flow cytometry, cynomolgus pan-T cells", "protocol": "as §1"}, "human ROR1 (on cells) [7]": {"molecular_target": "T1, human ROR1 (on cells)", "assay": "cell-based or functional assay", "remark": "listed apart in the source"}, "human ROR1 (on cells) [8]": {"molecular_target": "T1, human ROR1 (on cells)", "assay": "cell-based or functional assay", "remark": "listed apart in the source"}, "[9]": {"molecular_target": "T2, mouse ROR1 (on 4T1 cells engineered to …)", "assay": "flow cytometry, 4T1-muROR1 cells; reference: 82H02 TCE #4", "protocol": "as §1"}, "human ROR1 (on cells) [10]": {"molecular_target": "T1, human ROR1 (on cells)", "assay": "flow cytometry, MDA-MB-231 cells; reference: 82H02 TCE #4"}, "human ROR1 (on cells) [11]": {"molecular_target": "T1, human ROR1 (on cells)", "assay": "flow cytometry, ROR1+ MDA-MB-231 cells", "protocol": "as §1"}}}
{"binder": "82H02 TCE #3 (sequence optimized 82H02 bispecific TCE in Format 1A, low ROR1 / high CD3 affinity) (bispecific antibody, also called 82H02 #3; 82H02 VL1.06x1F3.5-VH1.03) heavy 1: EVQLVESGGGLVQPGGSLKLSCAASGFTFNTYAMNWVRQASGKGLEWVGRIRSKYNNYATYYADSVKGRFTISRDDSKNTLYLQMNSLKTEDTAVYYCVRHGNFGASYVSWFAYWGQGTMVTVSSASTKGPSVFPLAPSSKSTSGGTAALGCLVKDYFPEPVTVSWNSGALTSGVHTFPAVLQSSGLYSLSSVVTVPSSSLGTQTYICNVNHKPSNTKVDKKVEPKSCDKTHTCPPCPAPEAAGGPSVFLFPPKPKDTLMISRTPEVTCVVVDVSHEDPEVKFNWYVDGVEVHNAKTKPREEQYNSTYRVVSVLTVLHQDWLNGKEYKCKVSNKALGAPIEKTISKAKGQPFRPEVHLLPPSREEMTKNQVSLTCLARGFYPKDIAVEWESNGQPENNYKTTPSRQEPSQGTTTFAVTSKLTVDKSRWQQGNVFSCSVMHEALHNHYTQKTISLSPGK heavy 2: EIVLTQSPATLSLSPGERATLSCRASQSVSSYLAWYQQKPGQAPRLLIYDASNRATGIPARFSGSGSGTDFTLTISSLEPEDFAVYYCQQRSNWPPFTFGQGTRLEIKGGGGSGGGGSGGGGSGGGGSEVQLLESGGGLVQPGGSLRLSCAASGFTFTSYAMSWVRQAPGKGLEWVSTISGSGGGTYYTDSVKGRFTISRDNSKNTLYLQMNSLRAEDTAVYYCAQGSSIFDYWGQGTLVTVSSEPKSSDKTHTCPPCPAPEAAGGPSVFLFPPKPKDTLMISRTPEVTCVVVDVSHEDPEVKFNWYVDGVEVHNAKTKPREEQYNSTYRVVSVLTVLHQDWLNGKEYKCKVSNKALGAPIEKTISKAKGQPREPQVYTLPPPSEELALNELVTLTCLVKGFYPSDIAVEWLQGSQELPREKYLTWAPVLDSDGSFFLYSILRVAAEDWKKGDTFSCSVMHEALHNHYTQKSLDRSPGKGGGGSGGGGSGGGGSGGGGSEIVLTQSPATLSLSPGERATLSCRASQSVSSYLAWYQQKPGQAPRLLIYDASNRATGIPARFSGSGSGTDFTLTISSLEPEDFAVYYCQQRSNWPPFTFGQGTRLEIKGGGGSGGGGSGGGGSGGGGSEVQLLESGGGLVQPGGSLRLSCAASGFTFTSYAMSWVRQAPGKGLEWVSTISGSGGGTYYTDSVKGRFTISRDNSKNTLYLQMNSLRAEDTAVYYCAQGSSIFDYWGQGTLVTVSS light: QAVVTQEPSLTVSPGGTVTLTCRSSTGAVTTSNYANWVQQKPGQAPRGLIGGTNKRAPGTPARFSGSLLGGKAALTLSGVQPEDEAEYYCALWYSNLWVFGGGTKLTVLGQPKAAPSVTLFPPSSEELQANKATLVCLISDFYPGAVTVAWKADSSPVKAGVETTTPSKQSNNKYAASSYLSLTPEQWKSHRSYSCQVTHEGSTVEKTVAPTECS", "values": [{"measurement": "TDCC EC50, PBMCs: MDA-MB-231", "setting": "human ROR1 (on cells) [1]", "value": 148, "unit": "nM"}, {"measurement": "EC50", "setting": "[2]", "value": 1040, "unit": "nM"}, {"measurement": "fold difference in apparent ROR1 binding affinity between human and mouse ROR1", "setting": "[3]", "value": "~5", "unit": "fold"}, {"measurement": "TDCC AUC, PBMCs: MDA-MB-231-0.2", "setting": "human ROR1 (on cells) [4]", "value": 31300}, {"measurement": "TDCC AUC, PBMCs: MDA-MB-231-0.4", "setting": "human ROR1 (on cells) [4]", "value": 44800}, {"measurement": "TDCC AUC, PBMCs: MDA-MB-231-0.6", "setting": "human ROR1 (on cells) [4]", "value": 51000}, {"measurement": "TDCC AUC, PBMCs: MDA-MB-231-1.3", "setting": "human ROR1 (on cells) [4]", "value": 61700}, {"measurement": "TDCC AUC, PBMCs: MDA-MB-231-7", "setting": "human ROR1 (on cells) [4]", "value": 71400}, {"measurement": "TDCC EC50, PBMCs: MDA-MB-231-0.2", "setting": "human ROR1 (on cells) [4]", "value": 0.0181, "unit": "nM"}, {"measurement": "TDCC EC50, PBMCs: MDA-MB-231-0.4", "setting": "human ROR1 (on cells) [4]", "value": 0.0153, "unit": "nM"}, {"measurement": "TDCC EC50, PBMCs: MDA-MB-231-0.6", "setting": "human ROR1 (on cells) [4]", "value": 0.0138, "unit": "nM"}, {"measurement": "TDCC EC50, PBMCs: MDA-MB-231-1.3", "setting": "human ROR1 (on cells) [4]", "value": 0.0102, "unit": "nM"}, {"measurement": "TDCC EC50, PBMCs: MDA-MB-231-7", "setting": "human ROR1 (on cells) [4]", "value": 0.00546, "unit": "nM"}, {"measurement": "TDCC Emax, PBMCs: MDA-MB-231-0.2", "setting": "human ROR1 (on cells) [4]", "value": 33.1, "unit": "%"}, {"measurement": "TDCC Emax, PBMCs: MDA-MB-231-0.4", "setting": "human ROR1 (on cells) [4]", "value": 47.8, "unit": "%"}, {"measurement": "TDCC Emax, PBMCs: MDA-MB-231-0.6", "setting": "human ROR1 (on cells) [4]", "value": 53.8, "unit": "%"}, {"measurement": "TDCC Emax, PBMCs: MDA-MB-231-1.3", "setting": "human ROR1 (on cells) [4]", "value": 63.2, "unit": "%"}, {"measurement": "TDCC Emax, PBMCs: MDA-MB-231-7", "setting": "human ROR1 (on cells) [4]", "value": 72.8, "unit": "%"}, {"measurement": "EC50", "setting": "[5]", "value": 3, "unit": "nM"}, {"measurement": "EC50", "setting": "[6]", "value": 4.4, "unit": "nM"}, {"measurement": "IFNγ release AUC, PBMCs: MDA-MB-231-0.2", "setting": "human ROR1 (on cells) [7]", "value": "1.29e+06"}, {"measurement": "IFNγ release AUC, PBMCs: MDA-MB-231-0.4", "setting": "human ROR1 (on cells) [7]", "value": "1.68e+06"}, {"measurement": "IFNγ release AUC, PBMCs: MDA-MB-231-0.6", "setting": "human ROR1 (on cells) [7]", "value": "1.62e+06"}, {"measurement": "IFNγ release AUC, PBMCs: MDA-MB-231-1.3", "setting": "human ROR1 (on cells) [7]", "value": "4.32e+06"}, {"measurement": "IFNγ release AUC, PBMCs: MDA-MB-231-7", "setting": "human ROR1 (on cells) [7]", "value": "4.43e+06"}, {"measurement": "IFNγ release EC50, PBMCs: MDA-MB-231-0.2", "setting": "human ROR1 (on cells) [7]", "value": 0.202, "unit": "nM"}, {"measurement": "IFNγ release EC50, PBMCs: MDA-MB-231-0.4", "setting": "human ROR1 (on cells) [7]", "value": 0.167, "unit": "nM"}, {"measurement": "IFNγ release EC50, PBMCs: MDA-MB-231-0.6", "setting": "human ROR1 (on cells) [7]", "value": 0.107, "unit": "nM"}, {"measurement": "IFNγ release EC50, PBMCs: MDA-MB-231-1.3", "setting": "human ROR1 (on cells) [7]", "value": 0.0308, "unit": "nM"}, {"measurement": "IFNγ release EC50, PBMCs: MDA-MB-231-7", "setting": "human ROR1 (on cells) [7]", "value": 0.0271, "unit": "nM"}, {"measurement": "IFNγ release Emax, PBMCs: MDA-MB-231-0.2", "setting": "human ROR1 (on cells) [7]", "value": 1830, "unit": "%"}, {"measurement": "IFNγ release Emax, PBMCs: MDA-MB-231-0.4", "setting": "human ROR1 (on cells) [7]", "value": 2250, "unit": "%"}, {"measurement": "IFNγ release Emax, PBMCs: MDA-MB-231-0.6", "setting": "human ROR1 (on cells) [7]", "value": 3160, "unit": "%"}, {"measurement": "IFNγ release Emax, PBMCs: MDA-MB-231-1.3", "setting": "human ROR1 (on cells) [7]", "value": 4680, "unit": "%"}, {"measurement": "IFNγ release Emax, PBMCs: MDA-MB-231-7", "setting": "human ROR1 (on cells) [7]", "value": 4730, "unit": "%"}, {"measurement": "IFNγ release EC50, PBMCs: MDA-MB-231", "setting": "human ROR1 (on cells) [8]", "value": 425, "unit": "nM"}, {"measurement": "Max IFNγ, PBMCs: MDA-MB-231", "setting": "human ROR1 (on cells) [8]", "value": 881, "unit": "pg/mL"}, {"measurement": "fold difference in ROR1 binding affinity against 82H02 TCE #4", "setting": "[9]", "value": "~2", "unit": "fold"}, {"measurement": "fold difference in ROR1 binding affinity against 82H02 TCE #4", "setting": "human ROR1 (on cells) [10]", "value": "~3", "unit": "fold"}, {"measurement": "EC50", "setting": "human ROR1 (on cells) [11]", "value": 211, "unit": "nM"}]}
